Measured values as given in patent US20230250191A1 (SHANGHAI JEMINCARE PHARMACEUTICAL, published 2023).

Assays:
[1] = target: T1, cynomolgus monkey IgE CH3-CH4 (cynomolgus monkey); experiment: BLI (Octet), method of Example 2, biotinylated cynomolgus IgE CH3-CH4
T1 construct: domain: CH3-CH4; Custom protein; also called Biotin -cyno IgE CH3-CH4; Biotin-cyno IgE
Description: Detection of samples on machine (Octet Data Acquisition 11.1.0.11): First, samples were added to a 96-well plate (Greiner bio-one, 655209) with 200 µL/well according to the following table. The software parameters were then set, the plate temperature was set at 30° C., and the frequency of standard kinetic signals was collected at 5.0 Hz. Next, the CH1 sensor (Fortébio, 18-0039) with 1xPBST was pre-wet for 10 minutes, and then tested on the machine. Each cycle includes the following steps: 1) immersing in buffer for 60 s; 2) detecting whether the antigen non-specifically binds to the sensor; 3) regenerating with glycine solution at 10 mM pH 1.7; 4) immersing in buffer for 60 s; 5) immobilizating the antibody on the sensor for 30 s; 6) immersing the sensor in the buffer for 180 s; 7) Association of the antigen- antibody for 180 s; 8) dissociation of the antigen-antibody for 10 min; 9) regenerating the sensor.

human FcRn = target: T2, human FcRn (human, UniProt P55899 24-297; P61769 21-119); experiment: BLI (Octet RED96e), pH 6.0, FcRn captured through biotin-conjugated anti-His antibody, antibody 31.3-1000 nM
T2 construct: Bought protein; also called hFcRn
T2 sequence (P55899 24-297 limits assumed, chain 1 of 2): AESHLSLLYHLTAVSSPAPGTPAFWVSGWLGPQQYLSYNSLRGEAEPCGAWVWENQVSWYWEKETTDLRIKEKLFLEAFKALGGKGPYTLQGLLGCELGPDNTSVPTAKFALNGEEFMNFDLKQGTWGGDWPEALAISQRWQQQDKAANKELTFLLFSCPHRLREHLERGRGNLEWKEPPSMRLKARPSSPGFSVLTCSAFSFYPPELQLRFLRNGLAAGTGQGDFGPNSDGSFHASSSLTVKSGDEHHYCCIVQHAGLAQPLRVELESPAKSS
T2 sequence (P61769 21-119 limits assumed, chain 2 of 2): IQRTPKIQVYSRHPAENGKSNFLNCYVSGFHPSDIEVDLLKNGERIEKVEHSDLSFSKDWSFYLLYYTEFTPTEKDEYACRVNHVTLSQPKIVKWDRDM
Description: (§1) The affinity of the antibody to human FcRn (Acro, FCN-H52W7) and cynomolgus monkey FcRn (Acro, FCM-C52W9) was determined according to the method of Example 2 using Octet RED96e (Fortebio). Wherein, human FcRn and cynomolgus FcRn were diluted to 5 µg/mL with 1xPBS (10 mM Na2HPO4.12H2O, 2 mM KH2PO4, 137 mM NaCl, 2.7 mM KCl, pH 6.0), respectively, and biotin-conjugated THETM His-tagged mouse monoclonal antibody was diluted to 2 µg/mL; the antibody to be tested was diluted with 1x PBST (1xPBS, 0.02% Tween 20, pH6.0), and the antibody dilution concentration ranged from 1000 nM - 31.3 nM.

cynomolgus monkey FcRn = target: T3, cynomolgus monkey FcRn (cynomolgus monkey, UniProt Q8SPV9 24-297; Q8SPW0 21-119); experiment: as above
T3 construct: Bought protein; also called Cynomolgus FcRn; cynomolgus FcRn
T3 sequence (Q8SPV9 24-297 limits assumed, chain 1 of 2): as the sequence (P55899 24-297 limits assumed, chain 1 of 2) above, with N39D, E44Q, G99S, S189G, S190N, L217M, S269T counted along it
T3 sequence (Q8SPW0 21-119 limits assumed, chain 2 of 2): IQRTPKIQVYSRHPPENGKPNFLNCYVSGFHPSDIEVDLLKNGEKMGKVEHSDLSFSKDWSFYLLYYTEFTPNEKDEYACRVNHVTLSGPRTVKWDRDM
Description: as §1

Binder | Kd [1] | koff [1] | kon [1] | Kd (human FcRn) | koff (human FcRn) | kon (human FcRn) | Kd (cynomolgus monkey FcRn) | koff (cynomolgus monkey FcRn) | kon (cynomolgus monkey FcRn)
AB1904Am2 (antibody, V domains shown, IgG1 format) VH: EVQLVESGGGLVQPGGSLRLSCAVSGYSIRSGYSWNWVRQAPGKGLEWVSVITYAGSTNYADSVKGRFTISRDDSKNTFYLQMNSLRAEDTAVYYCARGSHYFGHWHFAVWGQGTLVTVSS VL: DIQLTQSPSSLSASVGDRVTITCRASQSVADEWDSYMNWYQQKPGKAPKLLIYAASYLQSGVPSRFSGSGSGTDFTLTISSLQPEDFATYYCQQSHEDPYTFGQGTKLEIK | 110 pM | 0.000222 s⁻¹ | 2.06e+06 M⁻¹ s⁻¹ | – | – | – | – | – | –
AB1904Am3 (antibody, V domains shown, IgG1 format) VH: EVQLVESGGGLVQPGGSLRLSCAVSGYSITSGYSWNWVRQAPGKGLEWVSVITYAGSTNYADSVKGRFTISRDDSKNTFYLQMNSLRAEDTAVYYCARGTHYFGHWHFAVWGQGTLVTVSS VL: DIQLTQSPSSLSASVGDRVTITCRASQSVDAEGDSYMNWYQQKPGKAPKLLIYAASYLQSGVPSRFSGSGSGTDFTLTISSLQPEDFATYYCQQSHEDPYTFGQGTKLEIK | 160 pM | 0.000272 s⁻¹ | 1.7e+06 M⁻¹ s⁻¹ | – | – | – | – | – | –
AB1904Am5 (antibody, V domains shown, IgG1 format) VH: EVQLVESGGGLVQPGGSLRLSCAVSGYSITSGYSWNWVRQAPGKGLEWVSVITYAGSTNYADSVKGRFTISRDDSKNTFYLQMNSLRAEDTAVYYCARGSHYFGHWHFAVWGQGTLVTVSS VL: DIQLTQSPSSLSASVGDRVTITCRASQSVDDEYDSYMNWYQQKPGKAPKLLIYAASYLQSGVPSRFSGSGSGTDFTLTISSLQPEDFATYYCQQSHEDPYTFGQGTKLEIK | 150 pM | 0.000267 s⁻¹ | 1.77e+06 M⁻¹ s⁻¹ | – | – | – | – | – | –
AB1904Am6 (antibody, V domains shown, IgG1 format) VH: EVQLVESGGGLVQPGGSLRLSCAVSGYSITSGYSWNWVRQAPGKGLEWVSVITYAGSTNYADSVKGRFTISRDDSKNTFYLQMNSLRAEDTAVYYCARGSNYFGHWHFAVWGQGTLVTVSS VL: DIQLTQSPSSLSASVGDRVTITCRASQSVDSEGDSYMNWYQQKPGKAPKLLIYAASYLQSGVPSRFSGSGSGTDFTLTISSLQPEDFATYYCQQSHEDPYTFGQGTKLEIK | 180 pM | 0.000308 s⁻¹ | 1.74e+06 M⁻¹ s⁻¹ | – | – | – | – | – | –
AB1904Am11 (antibody, V domains shown, IgG1 format) VH: EVQLVESGGGLVQPGGSLRLSCAVSGYSITSGYSWNWVRQAPGKGLEWVSVITYAGSTNYADSVKGRFTISRDDSKNTFYLQMNSLRAEDTAVYYCARGTHYFGHWHFAVWGQGTLVTVSS VL: DIQLTQSPSSLSASVGDRVTITCRASQSVNDEADSYMNWYQQKPGKAPKLLIYAASYLQSGVPSRFSGSGSGTDFTLTISSLQPEDFATYYCQQSHEDPYTFGQGTKLEIK | 170 pM | 0.000248 s⁻¹ | 1.5e+06 M⁻¹ s⁻¹ | – | – | – | – | – | –
AB1904Am10 (antibody, IgG1 format) VL: DIQLTQSPSSLSASVGDRVTITCRASQSVGDEADSYMNWYQQKPGKAPKLLIYAASYLQSGVPSRFSGSGSGTDFTLTISSLQPEDFATYYCQQSHEDPYTFGQGTKLEIKRTVAAPSVFIFPPSDEQLKSGTASVVCLLNNFYPREAKVQWKVDNALQSGNSQESVTEQDSKDSTYSLSSTLTLSKADYEKHKVYACEVTHQGLSSPVTKSFNRGEC VH: not shown | – | – | – | 98700 pM | 0.121 s⁻¹ | 1.22e+06 M⁻¹ s⁻¹ | 91400 pM | 0.106 s⁻¹ | 1.16e+06 M⁻¹ s⁻¹
AB1904Am15 (antibody, Same variable regions as AB1904Am10) VL: DIQLTQSPSSLSASVGDRVTITCRASQSVGDEADSYMNWYQQKPGKAPKLLIYAASYLQSGVPSRFSGSGSGTDFTLTISSLQPEDFATYYCQQSHEDPYTFGQGTKLEIKRTVAAPSVFIFPPSDEQLKSGTASVVCLLNNFYPREAKVQWKVDNALQSGNSQESVTEQDSKDSTYSLSSTLTLSKADYEKHKVYACEVTHQGLSSPVTKSFNRGEC VH: EVQLVESGGGLVQPGGSLRLSCAVSGYSITSGYSWNWVRQAPGKGLEWVSVITYAGSTNYADSVKGRFTISRDDSKNTFYLQMNSLRAEDTAVYYCARGTHYFGHWHFAVWGQGTLVTVSSASTKGPSVFPLAPSSKSTSGGTAALGCLVKDYFPEPVTVSWNSGALTSGVHTFPAVLQSSGLYSLSSVVTVPSSSLGTQTYICNVNHKPSNTKVDKKVEPKSCDKTHTCPPCPAPELLGGPSVFLFPPKPKDTLYITREPEVTCVVVDVSHEDPEVKFNWYVDGVEVHNAKTKPREEQYNSTYRVVSVLTVLHQDWLNGKEYKCKVSNKALPAPIEKTISKAKGQPREPQVYTLPPSREEMTKNQVSLTCLVKGFYPSDIAVEWESNGQPENNYKTTPPVLDSDGSFFLYSKLTVDKSRWQQGNVFSCSVMHEALHNHYTQKSLSLSPGK | – | – | – | 32800 pM | 0.0287 s⁻¹ | 875000 M⁻¹ s⁻¹ | 31500 pM | 0.0291 s⁻¹ | 922000 M⁻¹ s⁻¹
